According to patent publication US6268347A, “Prosaposin-derived peptides” (Regents of the University of CA, priority 1999, dated 2001):
Where a SMILES comes first, the peptide text is derived from it. [ ]: non-standard residue; d: D form.

B1: Prosaposin: 517 amino acid protein, precursor of four sphingolipid activator proteins (saposins A, B, C, D) (protein, UniProt P07602 1-524, looked up)
chain: MYALFLLASLLGAALAGPVLGLKECTRGSAVWCQNVKTASDCGAVKHCLQTVWNKPTVKSLPCDICKDVVTAAGDMLKDNATEEEILVYLEKTCDWLPKPNMSASCKEIVDSYLPVILDIIKGEMSRPGEVCSALNLCESLQKHLAELNHQKQLESNKIPELDMTEVVAPFMANIPLLLYPQDGPRSKPQPKDNGDVCQDCIQMVTDIQTAVRTNSTFVQALVEHVKEECDRLGPGMADICKNYISQYSEIAIQMMMHMQPKEICALVGFCDEVKEMPMQTLVPAKVASKNVIPALELVEPIKKHEVPAKSDVYCEVCEFLVKEVTKLIDNNKTEKEILDAFDKMCSKLPKSLSEECQEVVDTYGSSILSILLEEVSPELVCSMLHLCSGTRLPALTVHVTQPKDGGFCEVCKKLVGYLDRNLEKNSTKQEILAALEKGCSFLPDPYQKQCDQFVAEYEPVLIEILVEVMDPSFVCLKIGACPSAHKPLLGTEKCIWGPSYWCQNTETAAQCNAVEHCKRHVWN
modifications: full-length

How the values were obtained:
Chung model rats = experiment: Tactile allodynia (von Frey 50% paw withdrawal threshold) in Chung model rats; type: in vivo, rat; conditions: any concentration tested, intrathecal
Description: The surgical procedure previously described by Kim and Chung, supra, 1992, was performed on male Sprague-Dawley rats weighing 120 to 150 grams to induce an allodynic state. Briefly, the rats were anesthetized with halothane; subsequently, the left L-5 and L-6 spinal nerves were isolated adjacent to the vertebral column and ligated with 6.0 silk suture distal to the dorsal root ganglion. After a ten to fourteen day post operative recovery period, a spinal catheter was introduced. Five days following the second surgery, intrathecal drug administration was accomplished using a gear driven micro-injection syringe connected to a spinal catheter inserted through the foramen magnum. Prior to testing, the rats were placed in clear plastic wire meshed cages and allowed to accommodate.
To assess the 50% mechanical threshold for paw withdrawal, a von Frey hair was applied to the hind foot avoiding the foot pad. Each of the von Frey hairs, which are calibrated to bend at increasing log forces, were pressed perpendicularly to the foot with sufficient force to cause slight bending for a duration of approximately six to eight seconds. A positive response was noted if the foot was sharply withdrawn. […] The X-axis indicates the time after the injection at which point the hypersensitivity to pressure on the foot pad was measured.

neurite outgrowth = conditions: cited from earlier work
[1] = system: choline acetyltransferase activity; conditions: cited from earlier work
neuroblastoma cells = conditions: cited from earlier work

Row | Molecule | side effects such as sedation (Chung model rats) | neurite outgrowth (neurite outgrowth) | choline acetyltransferase activity [1] | cell death in neuroblastoma cells (neuroblastoma cells)
1 | CC[C@H](C)[C@H](NC(=O)[C@H](CCC(=O)O)NC(=O)[C@H](CCCCN)NC(=O)[C@H](CCC(=O)O)NC(=O)[C@@H](NC(=O)[C@H](CCCCN)NC(=O)[C@H](CC(N)=O)NC(=O)[C@H](CC(N)=O)NC(=O)[C@H](CC(=O)O)NC(=O)[C@@H](NC(=O)[C@H](CC(C)C)NC(=O)[C@H](CCCCN)NC(=O)[C@@H](NC(=O)[C@@H](NC(=O)[C@H](CCC(=O)O)NC(=O)[C@H](CCCCN)NC(=O)[C@@H](NC(=O)[C@H](CC(C)C)NC(=O)[C@H](Cc1ccccc1)NC(=O)[C@H](CCC(=O)O)NC(=O)[C@@H](N)CS)C(C)C)C(C)C)[C@@H](C)O)[C@@H](C)CC)[C@@H](C)O)C(=O)N[C@@H](CC(C)C)C(=O)O [SEQ ID NO: 1] (H-CEFLVKEVTKLIDNNKTEKEIL-OH) | No significant side effects such as sedation were observed | – | – | –
2 | CC[C@H](C)[C@H](NC(=O)[C@H](CCC(=O)O)NC(=O)[C@H](CCC(=O)O)NC(=O)[C@@H](NC(=O)[C@H](C)NC(=O)[C@H](CC(N)=O)NC(=O)[C@H](CC(N)=O)NC(=O)[C@H](CC(=O)O)NC(=O)[C@@H](NC(=O)[C@H](CC(C)C)NC(=O)[C@@H](C)NC(=O)[C@@H](N)[C@@H](C)O)[C@@H](C)CC)[C@@H](C)O)C(=O)N[C@@H](CC(C)C)C(=O)N[C@@H](Cc1ccc(O)cc1)C(=O)O [SEQ ID NO: 2, TXLIDNNATEEILY] (H-T[dA]LIDNNATEEILY-OH) | No side effects were observed | – | – | –
3 | B1 | – | stimulates motor neurite outgrowth in vitro and in vivo | increases choline acetyltransferase activity | prevents cell death
